Among the data in patent US20230125173A1 are IC50, inhibition of TGFβ1 (0.1nM stock) activity in HEK-Blue TGFβ reporter cells, QUANTI-Blue OD 620-655 nM and EC50, 32Dβ cell proliferation (WST1, absorbance values, retold here.

Assay [1] concerns the target TGFβ1 (R&D systems) (UniProt P01137). Put plainly: cell-based or functional assay.
The target in assay [2] is IL2Rβ and common γ chain on 32Dβ cells. Put plainly: cell-based or functional assay.

Sequence of UniProt P01137 (P01137 279-390 limits assumed): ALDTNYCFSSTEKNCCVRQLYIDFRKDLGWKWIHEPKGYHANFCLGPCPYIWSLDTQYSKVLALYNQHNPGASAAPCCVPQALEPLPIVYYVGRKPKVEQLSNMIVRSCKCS

As to TGFR-Fc (R&D Systems) (Fc fusion), the IC50, inhibition of TGFβ1 (0.1nM stock) activity in HEK-Blue TGFβ reporter cells, QUANTI-Blue OD 620-655 nM in assay [1] came to 461 pM.
“recombinant IL-15 (from UniProt P40933 49-162) (ligand)” yielded an EC50, 32Dβ cell proliferation (WST1, absorbance at 450 nM) in assay [2] of 10.6 pM.
